Where no end group is shown, it is not given here. [ ]: non-standard residue; d: D form. Arg(Me2s) = CN=C(NC)NCCC[C@H](N)C(=O)O
Legend:
[1] = molecular target: T1, Krimper eTud1 (residues 272-512) (Drosophila melanogaster, UniProt A1ZAC4); test: ITC analysis of Krimper eTud1 with Ago3 or Aub peptides; type: binding; settings: Fig. 1f
T1 construct: Krimper eTud1 (residues 272-512) was cloned into a self-modified pSumo vector; 10xHis (N, cleaved yes); yeast SUMO (N, cleaved yes); made in house; host or cells: E. coli BL21(DE3) Rosetta
T1 sequence (A1ZAC4 272-512): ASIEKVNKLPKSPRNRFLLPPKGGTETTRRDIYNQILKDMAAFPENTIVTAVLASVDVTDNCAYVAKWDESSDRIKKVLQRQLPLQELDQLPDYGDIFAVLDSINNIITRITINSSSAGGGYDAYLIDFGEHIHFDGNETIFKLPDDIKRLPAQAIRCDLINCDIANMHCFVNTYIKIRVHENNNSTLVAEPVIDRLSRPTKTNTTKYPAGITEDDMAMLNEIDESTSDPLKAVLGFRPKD
Text: However, the region of Krimper responsible for Ago3 binding remained unknown. To study the Ago3-Krimper interaction, we expressed and purified eTud1 and eTud2 domains of Krimper (Fig. 1c) and tested their binding to peptides derived from the N-terminal Ago3 sequence using isothermal titration calorimetry (ITC) (Fig. 1f and Supplementary Fig. 1a). […] Thus, the two Tudor domains of Krimper have different binding preferences ensuring that Aub and Ago3 can bind Krimper simultaneously without direct competition for a binding site.
Krimper eTud1 (residues 272-512) was cloned into a self-modified pSumo vector with 10×His tag followed by a yeast sumo sequence. The plasmid was transformed into E. coli strain BL21(DE3) Rosseta and cultured at 37 °C in LB medium. The protein expression was induced by adding IPTG to a final concentration of 0.2 mM when the OD600 reached 0.7, and the cells were cooled to 16 °C. The recombinant expressed protein was purified using a HisTrap column (GE Healthcare). The […] plus yeast sumo tag was removed by ulp1 protease digestion followed by a second step HisTrap column (GE Healthcare). The target protein was further purified using MonoQ and Superdex G75 columns (GE Healthcare).
All ITC was performed using the Malvern PEAQ ITC instrument (Malvern) in a buffer of 50 mM NaCl, 20 mM HEPES pH 7.5, and 2 mM β-mercaptoethanol. […]

Krimper eTud1ΔC = molecular target: T2, Krimper eTud1ΔC (Drosophila melanogaster, UniProt A1ZAC4); type: binding; settings: ITC, Fig. 1f, unmethylated Ago3-2 peptide
T2 construct: Krimper contains two extended Tudor domains: eTud1(272-512) and eTud2 (562-746); made in house
Method: All ITC was performed using the Malvern PEAQ ITC instrument (Malvern) in a buffer of 50 mM NaCl, 20 mM HEPES pH 7.5, and 2 mM β-mercaptoethanol. Data analysis was performed using the Malvern data analysis software and Origin 7.0.

[2] = molecular target: Krimper eTud1 (residues 272-512) (Drosophila melanogaster) (UniProt A1ZAC4); test: ITC; Malvern PEAQ ITC; 50 mM NaCl, 20 mM HEPES pH 7.5, 2 mM β-mercaptoethanol; Krimper Tudor domain with peptides
[3] = molecular target: T3, Krimper eTud2 (residues 562-746) (Drosophila melanogaster, UniProt A1ZAC4 562-746); test: ITC; R68me2
T3 chain: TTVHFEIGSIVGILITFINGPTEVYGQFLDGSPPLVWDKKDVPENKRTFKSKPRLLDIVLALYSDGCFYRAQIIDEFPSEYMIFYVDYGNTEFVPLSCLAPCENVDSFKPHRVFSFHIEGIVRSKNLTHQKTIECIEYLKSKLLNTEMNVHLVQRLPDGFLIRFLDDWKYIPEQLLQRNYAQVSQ

[4] = molecular target: T3, Krimper eTud2 (residues 562-746); test: ITC; R70me2
[5] = molecular target: T3, Krimper eTud2 (residues 562-746); test: ITC; R72me2
[6] = molecular target: T3, Krimper eTud2 (residues 562-746); test: ITC; R15me2

Molecule: H-NPVIARGRGRGRK-OH [Aub-1, unmethylated peptide from the N-terminal RG-repeat region of Aub used for ITC and structural analysis]
- binding to eTud1 (in words) [1]: does not detectably interact

Molecule: NISVGRGRARLIDTLK [Ago3-2]
- binding affinity of eTud1 ΔC compared with eTud1 (in words) (Krimper eTud1ΔC): higher binding affinity

Molecule: Ago3-2 peptide (aa residues 63-78 of Ago3) (from UniProt Q7PLK0 63-78)
- Kd [2]: 62.8 µM

Molecule: NISVG[Arg(Me2s)]GRARLIDTLK [Ago3-2 peptide methylated at R68]
- Kd [3]: 6.67 µM

Molecule: NISVGRG[Arg(Me2s)]ARLIDTLK [Ago3-2 peptide methylated at R70]
- Kd [4]: 2.2 µM

Molecule: NISVGRGRA[Arg(Me2s)]LIDTLK [Ago3-2 peptide methylated at R72]
- Kd [5]: 34.5 µM

Molecule: NPVIARGRGRGRK (also: symmetric dimethylarginine at R15) [Aub-R15me2 peptide]
- Kd [6]: 8.26 µM

Reference: PMC8249470, “Binding of guide piRNA triggers methylation of the unstructured N-terminal region of Aub leading to assembly of the piRNA amplification complex” (Nature Communications, 2021)
